Experimental data: the MegaScale stability set (Tsuboyama et al. 2023)

B1: EEHEE_rd4_0003 (parent)
chain: KKVTINGVEIKFNNPEEAVKFALELAKRLNLRIEFHGDQIKIE

Variants of: B1
Assay: folding stability dG (cDNA display proteolysis); higher = more stable
Settings: PBS, room temperature

Variant | folding stability dG [kcal/mol]
KKYTINGVEIKFNNPEEAVKFALELAKRLNLRIEFHGDQIKIE [V3Y] | 2.26
KKQTINGVEIKFNNPEEAVKFALELAKRLNLRIEFHGDQIKIE [V3Q] | 1.59
KKHTINGVEIKFNNPEEAVKFALELAKRLNLRIEFHGDQIKIE [V3H] | 1.86
KKITINGVEIKFNNPEEAVKFALELAKRLNLRIEFHGDQIKIE [V3I] | 2.48
KKSTINGVEIKFNNPEEAVKFALELAKRLNLRIEFHGDQIKIE [V3S] | 1.46
KKATINGVEIKFNNPEEAVKFALELAKRLNLRIEFHGDQIKIE [V3A] | 1.67
KKNTINGVEIKFNNPEEAVKFALELAKRLNLRIEFHGDQIKIE [V3N] | 1.7
KKDTINGVEIKFNNPEEAVKFALELAKRLNLRIEFHGDQIKIE [V3D] | 1.7
KKKTINGVEIKFNNPEEAVKFALELAKRLNLRIEFHGDQIKIE [V3K] | 1.57
KKETINGVEIKFNNPEEAVKFALELAKRLNLRIEFHGDQIKIE [V3E] | 1.86
KKMTINGVEIKFNNPEEAVKFALELAKRLNLRIEFHGDQIKIE [V3M] | 2.12
KKWTINGVEIKFNNPEEAVKFALELAKRLNLRIEFHGDQIKIE [V3W] | 2.29
KKFTINGVEIKFNNPEEAVKFALELAKRLNLRIEFHGDQIKIE [V3F] | 2.27
KKGTINGVEIKFNNPEEAVKFALELAKRLNLRIEFHGDQIKIE [V3G] | 1.85
KKPTINGVEIKFNNPEEAVKFALELAKRLNLRIEFHGDQIKIE [V3P] | 2.06
KKRTINGVEIKFNNPEEAVKFALELAKRLNLRIEFHGDQIKIE [V3R] | 1.95
KKTTINGVEIKFNNPEEAVKFALELAKRLNLRIEFHGDQIKIE [V3T] | 1.76
KKLTINGVEIKFNNPEEAVKFALELAKRLNLRIEFHGDQIKIE [V3L] | 2.39
KKVTFNGVEIKFNNPEEAVKFALELAKRLNLRIEFHGDQIKIE [I5F] | 2.8
KKVTENGVEIKFNNPEEAVKFALELAKRLNLRIEFHGDQIKIE [I5E] | 1.56

Variant | folding stability dG [kcal/mol]
KKVTTNGVEIKFNNPEEAVKFALELAKRLNLRIEFHGDQIKIE [I5T] | 1.59
KKVTANGVEIKFNNPEEAVKFALELAKRLNLRIEFHGDQIKIE [I5A] | 1.71
KKVTKNGVEIKFNNPEEAVKFALELAKRLNLRIEFHGDQIKIE [I5K] | 1.54
KKVTCNGVEIKFNNPEEAVKFALELAKRLNLRIEFHGDQIKIE [I5C] | 3.46
KKVTDNGVEIKFNNPEEAVKFALELAKRLNLRIEFHGDQIKIE [I5D] | 1.54
KKVTQNGVEIKFNNPEEAVKFALELAKRLNLRIEFHGDQIKIE [I5Q] | 1.66
KKVTSNGVEIKFNNPEEAVKFALELAKRLNLRIEFHGDQIKIE [I5S] | 1.46
KKVTVNGVEIKFNNPEEAVKFALELAKRLNLRIEFHGDQIKIE [I5V] | 2.47
KKVTMNGVEIKFNNPEEAVKFALELAKRLNLRIEFHGDQIKIE [I5M] | 2.07
KKVTWNGVEIKFNNPEEAVKFALELAKRLNLRIEFHGDQIKIE [I5W] | 2.83
KKVTHNGVEIKFNNPEEAVKFALELAKRLNLRIEFHGDQIKIE [I5H] | 1.93
KKVTPNGVEIKFNNPEEAVKFALELAKRLNLRIEFHGDQIKIE [I5P] | 1.79
KKVTGNGVEIKFNNPEEAVKFALELAKRLNLRIEFHGDQIKIE [I5G] | 1.72
KKVTNNGVEIKFNNPEEAVKFALELAKRLNLRIEFHGDQIKIE [I5N] | 1.47
KKVTLNGVEIKFNNPEEAVKFALELAKRLNLRIEFHGDQIKIE [I5L] | 2.39
KKVTRNGVEIKFNNPEEAVKFALELAKRLNLRIEFHGDQIKIE [I5R] | 1.58
KKVTYNGVEIKFNNPEEAVKFALELAKRLNLRIEFHGDQIKIE [I5Y] | 2.71
KKVTITGVEIKFNNPEEAVKFALELAKRLNLRIEFHGDQIKIE [N6T] | 2.01
KKVTILGVEIKFNNPEEAVKFALELAKRLNLRIEFHGDQIKIE [N6L] | 2.87
KKVTISGVEIKFNNPEEAVKFALELAKRLNLRIEFHGDQIKIE [N6S] | 2.11

Variant | folding stability dG [kcal/mol]
KKVTIRGVEIKFNNPEEAVKFALELAKRLNLRIEFHGDQIKIE [N6R] | 2.25
KKVTIHGVEIKFNNPEEAVKFALELAKRLNLRIEFHGDQIKIE [N6H] | 2.45
KKVTIEGVEIKFNNPEEAVKFALELAKRLNLRIEFHGDQIKIE [N6E] | 1.91
KKVTIDGVEIKFNNPEEAVKFALELAKRLNLRIEFHGDQIKIE [N6D] | 2.25
KKVTIVGVEIKFNNPEEAVKFALELAKRLNLRIEFHGDQIKIE [N6V] | 2.52
KKVTIMGVEIKFNNPEEAVKFALELAKRLNLRIEFHGDQIKIE [N6M] | 2.65
KKVTIAGVEIKFNNPEEAVKFALELAKRLNLRIEFHGDQIKIE [N6A] | 2.41
KKVTIIGVEIKFNNPEEAVKFALELAKRLNLRIEFHGDQIKIE [N6I] | 2.41
KKVTIQGVEIKFNNPEEAVKFALELAKRLNLRIEFHGDQIKIE [N6Q] | 2.14
KKVTIPGVEIKFNNPEEAVKFALELAKRLNLRIEFHGDQIKIE [N6P] | 1.57
KKVTIWGVEIKFNNPEEAVKFALELAKRLNLRIEFHGDQIKIE [N6W] | 3.34
KKVTIFGVEIKFNNPEEAVKFALELAKRLNLRIEFHGDQIKIE [N6F] | 3.23
KKVTIYGVEIKFNNPEEAVKFALELAKRLNLRIEFHGDQIKIE [N6Y] | 2.75
KKVTICGVEIKFNNPEEAVKFALELAKRLNLRIEFHGDQIKIE [N6C] | 4.2
KKVTIGGVEIKFNNPEEAVKFALELAKRLNLRIEFHGDQIKIE [N6G] | 2.5
KKVTIKGVEIKFNNPEEAVKFALELAKRLNLRIEFHGDQIKIE [N6K] | 2.17
KKVTINEVEIKFNNPEEAVKFALELAKRLNLRIEFHGDQIKIE [G7E] | 1.78
KKVTINCVEIKFNNPEEAVKFALELAKRLNLRIEFHGDQIKIE [G7C] | 3.05
KKVTINFVEIKFNNPEEAVKFALELAKRLNLRIEFHGDQIKIE [G7F] | 2.37
